Laboratory results published in article PMC7596504, “Molecular mechanism of the MORC4 ATPase activation” (Nature Communications, 2020).
Entries after “also recorded” stand apart in the source; their conditions may differ.

How the values were obtained:
[1] = system: HEK293T cells; assay: Cell cycle analysis by flow cytometry; assay type: cell-based; settings: 48-h overexpression of mCherry-tagged protein, EdU/PI; average of three independent experiments; control 34.5%
Procedure: For DNA content analysis, 10^6 cells previously transfected with mCherry MORC4 constructs and labeled with 25 µM Ethynyl deoxyUridine (EdU) for 1 h in 100 µL were washed with PBS (NaCl 137 mM, KCl 2.7 mM, Na2HPO4 10 mM, KH2PO4 1.8 mM) and fixed in ice cold 70% ethanol overnight. Fixed cells were washed and resuspended in PBS containing 0.05% NP40 and incubated at room temperature for 30 min. Cells were again washed with PBS. Cells were resuspended in Alexa Fluor 647 click staining solution (100 mM Tris pH 7.6, 4 mM CuSO4, 3 µM AF647 azide, 100 mM Sodium Ascorbate) for 1 h. Following staining, cells were washed with PBS and then stained for total DNA content using 10 μg/mL propidium iodide (PI) and 0.2 mg/ml RNase A for 60 min before analysis on a FACScan instrument. Data were analyzed using FlowJo (Version 10) with cells gated to remove doublets. EdU vs PI plots were gated in quadrants to identify G1, early S, late S and G2/M cells. S phase fractions were summed for total S phase population. […]

[2] = system: 601 DNA; assay: EMSA with 601 DNA; assay type: binding; settings: 147 bp 601 DNA 5 pmol, pH 7.5, 150 mM NaCl, 0.5 h on ice, listed as E56A mutant of MORC4
Procedure: EMSA experiments were performed essentially as described. In brief, increasing amounts of WT or mutant CW or ATPaseCW cassette of MORC4 were incubated with 147 bp 601 DNA (5 pmol) or 50 ng of O’RangeRuler 5 bp ladder (Thermo Scientific) in a DNA-binding buffer containing 20 mM Tris-HCl (pH 7.5), 150 mM NaCl, 2.5 mM MgCl2, and 2 mM DTT for 0.5 h on ice. The reaction mixtures were loaded on 5% native polyacrylamide gels, and electrophoresis was performed in 0.2× Tris-borate-EDTA (TBE) buffer at 100 V for 1.2 h on ice. Gels were stained with SYBR Gold (Invitrogen).

[3] = system: HEK293T cells; assay: MORC4 localization and nuclear bodies (confocal microscopy); assay type: cell-based; settings: 127 cells quantified
Procedure: WT mCherry-MORC4, mCherry-MORC4 E56A, mCherry-MORC4 W435A, mCherry-MORC4 E56A/W435A, mCherry-MORC4 K460A/R462A/R463A, or mCherry control plasmid were transfected into 2 million 293T-HEK cells seeded on 25 mm circular coverslips (Carolina Biological Supply Item#: 633057) in 10-cm-diameter tissue culture dish by Lipofectamine 3000 (Life Technology, L3000-075) following the manufacturer’s instructions. Two days after transfection, cells were stained with Hoechst […] for 30 min and imaged live on a ZeissAxiovert 200 M inverted microscope fitted with a ×40 oil objective. Images were acquired with Slidebook 6 software and exported for analysis in Image J.
mCherry foci sizes were calculated using ImageJ image processing program (version 1.51) using the Analyze Particle tool. mCherry particle sizes were collected for MORC4 WT and MORC4 W435A transfected cells. Data were plotted with R (version 3.4.1) using ggplot2 (version 3.2.1). Cell size and mCherry foci count per cell were calculated using CellProfile cell image analysis software (version 3.1.5) to identify nuclei and mCherry foci, relate mCherry foci to nuclei containing them and measure the size of nuclei and number mCherry foci contained. Data were plotted with R (version 3.4.1) using ggplot2 (version 3.2.1).

[4] = system: MORC4; assay: ATPase activity assay (EnzChek Phosphate Assay Kit); assay type: biochemical, human; settings: listed as E56A mutant of MORC4
Procedure: To determine whether MORC4 is catalytically active, we produced the ATPase domain of human MORC4 and examined its ability to hydrolyze ATP in enzymatic assays (Fig. 1a–c). Following incubation of the ATPase domain with ATP, 2-amino-6-mercapto-7-methylpurine ribonucleoside and nucleoside phosphorylase, the release of inorganic phosphate generated by the hydrolysis of ATP to ADP was monitored by measuring an increase in absorbance at 360 nm.
The ATPase assays were performed using the EnzChek Phosphate Assay Kit (Invitrogen, item # E6646). The reactions were carried out on 1.0 µM of MORC4 His-ATPase or ATPaseCW (WT and mutants), in the presence and absence of 1 µM 601 DNA or 50 µM of unmodified H3 or H3K4me3 peptide (aa 1–12 of H3) in a buffer containing 50 mM Tris-HCl (pH 7.5), 150 mM NaCl, 1 mM MgCl2, 0.1 mM sodium azide, 200 µM MESG, and 1 U of PNP. In assay with the nucleosome, 0.5 µM of MORC4 ATPaseCW and 0.5 µM NCP167 (Activemotif) were used. The reaction was started by adding 2 mM ATP to the mixture at room temperature, and the release of inorganic phosphate was monitored by measuring the absorbance at 360 nm on a Nanodrop 2000c spectrophotometer (Thermo Scientific). In the presence of inorganic phosphate, produced by the hydrolysis of ATP to ADP, MESG is enzymatically converted to ribose 1-phosphate and […] by PNP, resulting in a shift in the wavelength absorbance from 330 nm for MESG to 360 nm for the product. The rate of ATP self-hydrolysis was measured in parallel. Error was calculated as the S.D. of at least three separate experiments (two in Fig. 4j).

B1: MORC4 E56A: mCherry-tagged full-length MORC4 E56A mutant, catalytically impaired ATPase domain (protein, UniProt Q8TE76 1-937, looked up, variant E56A)
chain: MLLYRGAPAGPGAPGCGLARPGGGPQAFGIRLSTMSPRYLQSNSSSHTRPFSAIAALLDNAVDPDVSARTVFIDVEEVKNKSCLTFTDDGCGMTPHKLHRMLSFGFTDKVIKKSQCPIGVFGNGFKSGSMRLGKDALVFTKNGGTLTVGLLSQTYLECVQAQAVIVPIVPFNQQNKKMIITEDSLPSLEAILNYSIFNRENDLLAQFDAIPGKKGTRVLIWNIRRNKNGKSELDFDTDQYDILVSDFDTEEKMTGGVTSELPETEYSLRAFCGILYMKPRMKIFLRQKKVTTQMIAKSLANVEYDTYKPTFTNKQVRITFGFSCKNSNQFGIMMYHNNRLIKSFEKVGCQVKPTRGEGVGVIGVIECNFLKPAYNKQDFEYTKEYRLTINALAQKLNAYWKEKTSQDNFETSTVARPIPKVPDQTWVQCDECLKWRKLPGKIDPSMLPARWFCYYNSHPKYRRCSVPEEQELTDEDLCLSKAKKQEQTVEEKKKMPMENENHQVFSNPPKILTVQEMAGLNNKTIGYEGIHSPSVLPSGGEESRSPSLQLKPLDSSVLQFSSKYKWILGEEPVEKRRRLQNEMTTPSLDYSMPAPYRRVEAPVAYPEGENSHDKSSSERSTPPYLFPEYPEASKNTGQNREVSILYPGAKDQRQGSLLPEELEDQMPRLVAEESNRGSTTINKEEVNKGPFVAVVGVAKGVRDSGAPIQLIPFNREELAERRKAVESWNPVPYSVASAAIPAAAIGEKARGYEESEGHNTPKLKNQRELEELKRTTEKLERVLAERNLFQQKVEELEQERNHWQSEFKKVQHELVIYSTQEAEGLYWSKKHMGYRQAEFQILKAELERTKEEKQELKEKLKETETHLEMLQKAQVSYRTPEGDDLERALAKLTRLRIHVSYLLTSVLPHLELREIGYDSEQVDGILYTVLEANHILD
modifications: full-length mCherry tag
Which results are given for B1?
percent of cells in S phase [1]: 36.3%; binding to 601 DNA [2]: retains its DNA-binding activity; also recorded: binds DNA as WT MORC4; number of NBs compared to wild type [3]: significant increase in number of mCherry foci per cell; size of NBs compared to wild type [3]: significant decrease in mCherry foci size; number of NBs compared to wild type ([3]; listed as E56A mutant of MORC4): notable increase in the number of NBs; size of NBs compared to wild type ([3]; listed as E56A mutant of MORC4): decrease in the size of NBs; catalytic (ATPase) activity of the protein [4]: catalytically impaired ATPase domain; also recorded: catalytically inactive
